B1: Hammerhead Ribozyme (parent)
chain: ACCGGAUGUGCUUUCCGGUCUGAUGAGUCCGUGAGGACGAAACAG

Variants of: B1
Experiment: self-cleavage, relative activity (ratio to wild type); higher = more cleavage; co-transcriptional

Q: For C2U U12A, which self-cleavage is on record?
A: The self-cleavage was 1.26.

Q: With C2U U12C as the variant, how does the self-cleavage read?
A: Its self-cleavage is 1.06.

Q: For C2U U12G, which self-cleavage is on record?
A: The self-cleavage was 1.21.

Q: With C2G U28A as the variant, how does the self-cleavage read?
A: Its self-cleavage is 0.37.

Q: For C2G U28G, which self-cleavage is on record?
A: Its self-cleavage is 0.315.

Q: Which self-cleavage does the source give for C2G U28C here?
A: Its self-cleavage is 0.262.

Q: Which self-cleavage does the source give for C2G G17U here?
A: Its self-cleavage is 0.291.

Q: For C2G G17C, which self-cleavage is on record?
A: Its self-cleavage is 0.329.

Q: Which self-cleavage does the source give for C2G G17A here?
A: Its self-cleavage is 0.377.

Q: For C3A A6U, which self-cleavage is on record?
A: The self-cleavage was 0.371.

Q: For C3A A6C, which self-cleavage is on record?
A: Its self-cleavage is 0.335.

Q: Which self-cleavage does the source give for C3A A6G here?
A: Its self-cleavage is 0.366.

Q: With C2G U14A as the variant, how does the self-cleavage read?
A: The self-cleavage was 0.314.

Q: Which self-cleavage does the source give for C2G U14G here?
A: Its self-cleavage is 0.309.

Q: Which self-cleavage does the source give for C2G U14C here?
A: The self-cleavage was 0.317.

Q: With C2G C20A as the variant, how does the self-cleavage read?
A: Its self-cleavage is 0.274.

Q: For C2G C20G, which self-cleavage is on record?
A: The self-cleavage was 0.297.

Q: With C2G C20U as the variant, how does the self-cleavage read?
A: Its self-cleavage is 0.344.

Q: Which self-cleavage does the source give for C2A G25C here?
A: The self-cleavage was 0.359.

Q: For C2A G25A, which self-cleavage is on record?
A: The self-cleavage was 0.31.

Q: Which self-cleavage does the source give for C2A G25U here?
A: The self-cleavage was 0.323.

Q: For C2A G39U, which self-cleavage is on record?
A: The self-cleavage was 0.327.

Q: With C2A G39C as the variant, how does the self-cleavage read?
A: Its self-cleavage is 0.305.

Q: With C2A G39A as the variant, how does the self-cleavage read?
A: Its self-cleavage is 0.319.

Q: With C2U C16A as the variant, how does the self-cleavage read?
A: Its self-cleavage is 0.367.

Q: Which self-cleavage does the source give for C2U C16G here?
A: The self-cleavage was 0.356.

Q: For C2U C16U, which self-cleavage is on record?
A: Its self-cleavage is 1.07.

Q: With C2G A44C as the variant, how does the self-cleavage read?
A: The self-cleavage was 0.322.

Q: For C2G A44U, which self-cleavage is on record?
A: The self-cleavage was 0.323.

Q: For C2G A44G, which self-cleavage is on record?
A: Its self-cleavage is 0.627.

Q: Which self-cleavage does the source give for C2U G8A here?
A: Its self-cleavage is 0.998.

Q: With C2U G8C as the variant, how does the self-cleavage read?
A: Its self-cleavage is 0.871.

Q: Which self-cleavage does the source give for C2U G8U here?
A: The self-cleavage was 0.948.

Q: With C2U C3A as the variant, how does the self-cleavage read?
A: The self-cleavage was 0.417.

Q: Which self-cleavage does the source give for C2U C3G here?
A: Its self-cleavage is 0.319.

Q: With C2U C3U as the variant, how does the self-cleavage read?
A: Its self-cleavage is 0.588.

Q: For C3A A37C, which self-cleavage is on record?
A: The self-cleavage was 0.354.

Q: Which self-cleavage does the source give for C3A A37U here?
A: The self-cleavage was 0.388.

Q: Which self-cleavage does the source give for C3A A37G here?
A: The self-cleavage was 0.539.

Q: With C2U G36C as the variant, how does the self-cleavage read?
A: Its self-cleavage is 0.371.

Q: Which self-cleavage does the source give for C2U G36U here?
A: The self-cleavage was 0.488.

Q: Which self-cleavage does the source give for C2U G36A here?
A: The self-cleavage was 0.698.

Q: For C2U U19A, which self-cleavage is on record?
A: The self-cleavage was 0.365.

Q: Which self-cleavage does the source give for C2U U19C here?
A: The self-cleavage was 0.531.

Q: Which self-cleavage does the source give for C2U U19G here?
A: Its self-cleavage is 0.319.

Q: For C2G G25U, which self-cleavage is on record?
A: The self-cleavage was 0.272.

Q: With C2G G25A as the variant, how does the self-cleavage read?
A: Its self-cleavage is 0.325.

Q: Which self-cleavage does the source give for C2G G25C here?
A: The self-cleavage was 0.267.

Q: For C2G U19C, which self-cleavage is on record?
A: Its self-cleavage is 0.308.

Q: With C2G U19A as the variant, how does the self-cleavage read?
A: The self-cleavage was 0.294.

Q: For C2G U19G, which self-cleavage is on record?
A: Its self-cleavage is 0.275.

Q: Which self-cleavage does the source give for C2U C30A here?
A: The self-cleavage was 0.893.

Q: With C2U C30U as the variant, how does the self-cleavage read?
A: The self-cleavage was 1.04.

Q: Which self-cleavage does the source give for C2U C30G here?
A: Its self-cleavage is 0.876.

Q: For C2U A42C, which self-cleavage is on record?
A: The self-cleavage was 0.358.

Q: For C2U A42G, which self-cleavage is on record?
A: Its self-cleavage is 0.467.

Q: Which self-cleavage does the source give for C2U A42U here?
A: The self-cleavage was 0.301.

Q: With C2G C11U as the variant, how does the self-cleavage read?
A: Its self-cleavage is 0.32.

Q: With C2G C11G as the variant, how does the self-cleavage read?
A: Its self-cleavage is 0.402.

Q: With C2G C11A as the variant, how does the self-cleavage read?
A: The self-cleavage was 0.378.

Q: Which self-cleavage does the source give for C2G G36U here?
A: The self-cleavage was 0.325.

Q: Which self-cleavage does the source give for C2G G36C here?
A: Its self-cleavage is 0.336.

Q: Which self-cleavage does the source give for C2G G36A here?
A: Its self-cleavage is 0.3.

Q: With C2U A41C as the variant, how does the self-cleavage read?
A: Its self-cleavage is 0.35.

Q: With C2U A41G as the variant, how does the self-cleavage read?
A: The self-cleavage was 0.389.

Q: Which self-cleavage does the source give for C2U A41U here?
A: Its self-cleavage is 0.365.

Q: With C2G G18U as the variant, how does the self-cleavage read?
A: Its self-cleavage is 0.669.

Q: With C2G G18A as the variant, how does the self-cleavage read?
A: Its self-cleavage is 0.459.

Q: Which self-cleavage does the source give for C2G G18C here?
A: Its self-cleavage is 0.651.

Q: Which self-cleavage does the source give for C2A U14G here?
A: The self-cleavage was 0.697.

Q: With C2A U14C as the variant, how does the self-cleavage read?
A: The self-cleavage was 0.397.

Q: With C2A U14A as the variant, how does the self-cleavage read?
A: The self-cleavage was 0.509.

Q: Which self-cleavage does the source give for C2U G10A here?
A: Its self-cleavage is 1.22.

Q: With C2U G10C as the variant, how does the self-cleavage read?
A: Its self-cleavage is 1.5.

Q: For C2U G10U, which self-cleavage is on record?
A: The self-cleavage was 1.39.

Q: Which self-cleavage does the source give for C2A G35U here?
A: The self-cleavage was 0.457.

Q: Which self-cleavage does the source give for C2A G35A here?
A: The self-cleavage was 0.402.

Q: For C2A G35C, which self-cleavage is on record?
A: The self-cleavage was 0.429.

Q: With C2U U7A as the variant, how does the self-cleavage read?
A: Its self-cleavage is 1.58.

Q: Which self-cleavage does the source give for C2U U7C here?
A: The self-cleavage was 0.541.

Q: With C2U U7G as the variant, how does the self-cleavage read?
A: The self-cleavage was 1.72.

Q: With C2G U12G as the variant, how does the self-cleavage read?
A: Its self-cleavage is 0.31.

Q: For C2G U12A, which self-cleavage is on record?
A: Its self-cleavage is 0.335.

Q: With C2G U12C as the variant, how does the self-cleavage read?
A: The self-cleavage was 0.342.
